Experimental data published in patent US20240228562A1 (Pieris, published 2024).
Residue numbers refer to the chain shown, from its start.

T1: recombinant rat CTGF protein (R&D Systems) (rat, UniProt Q9R1E9 25-347)
T1 construct: Bought; also called rCTGF
T1 sequence: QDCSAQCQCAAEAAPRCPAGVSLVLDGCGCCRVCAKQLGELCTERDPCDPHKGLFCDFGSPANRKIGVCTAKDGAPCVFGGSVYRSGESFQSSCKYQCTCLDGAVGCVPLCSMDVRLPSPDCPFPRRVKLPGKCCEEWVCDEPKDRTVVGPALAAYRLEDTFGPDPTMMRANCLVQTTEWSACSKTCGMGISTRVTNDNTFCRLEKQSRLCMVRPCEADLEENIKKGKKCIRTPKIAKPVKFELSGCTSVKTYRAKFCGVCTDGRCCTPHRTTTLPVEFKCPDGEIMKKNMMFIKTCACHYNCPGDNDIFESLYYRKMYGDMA

T2: mouse CTGF (Abbexa) (mouse, UniProt P29268 26-348, limits assumed)
T2 construct: also called Murine CTGF; mCTGF
T2 sequence (looked up): T1 sequence with R16H, V148A

B1: lipocalin mutein of SEQ ID NO: 5 (designed binder)
chain: QDSTSDLIPAPPLSKVPLQQNFQDNQFQGKWYVVGKAGNALREDKEPPKMWATIYELKEDKSYDVTHVHFLTKKCKYLIDTFVPGSQPGEFTIGAIKSGPGLTSPLVRVVSTNYNQHAMVFFKWVSQNREWFTITLYGRTKELTSELKENFIRFSKSLGLPENHIVFPVPIDQCIDG
notes: also called hNGAL mutein; not shown: C-terminal His-tag
B2: lipocalin mutein of SEQ ID NO: 27 (designed binder)
chain: QDSTSDLIPAPPLSKVPLQQNFQDNQFQGKWYVVGLAGNYRLREDKDPSKMGATIYELKEDKSYDVTQVQFDDKKCLYVIETFVPGSQPGEFTLGAIKSYPGLTSQLVRVVSTNYNQHAMVFLKKVYGSEEYFHITLYGRTKELTSELKENFIRFSKSLGLPENHIVFPVPIDQCIDG
notes: as for B1
B3: lipocalin mutein of SEQ ID NO: 26 (designed binder)
chain: B2 chain with A96N, S99V, G102T, T104E, L123F, G128Q, S129N, E130R, Y132V, H134W
notes: as for B1
B4: lipocalin mutein of SEQ ID NO: 28 (designed binder)
chain: B2 chain with L123V, Y127W, G128P, S129N, E130L, H134Q, T136V
notes: as for B1
B5: lipocalin mutein of SEQ ID NO: 4 (designed binder)
chain: QDSTSDLIPAPPLSKVPLQQNFQDNQFHGKWYVVGRAGNNRLREDKDPPKMWATIYELKEDKSYDVTHVHFMTKKCRYIIDTFVPGSQPGEFTLGAIKSGPGMTSPLVRIVSTNYNQHAMVFFKWVNQNREWFTITLYGRTKELTSELKENFIRFSKSLGLPENHIVFPVPIDQCIDG
notes: also called optimized lipocalin mutein; hNGAL mutein
B6: lipocalin mutein of SEQ ID NO: 8 (designed binder)
chain: QDSTSDLIPAPPLSKVPLQQNFQDNQFQGKWYVVGLAGNYGLRTDKRPSKMFATIYELKEDKSYDVTSVRFEQERCHYTIRTFVPGSQPGEFTSGNIGNYPGSYSTLVRVVSTNYNQHAMVFFKSVIQNREYFAITLYGRTKELTSELKENFIRFSKSLGLPENHIVFPVPIDQCIDG
notes: as for B1
B7: lipocalin mutein of SEQ ID NO: 16 (designed binder)
chain: QDSTSDLIPAPPLSKVPLQQNFQDNQFQGKWYVVGLAGNAILRTDKQPAKMFATIYELKEDKSYDVTSVRFEAKSCVYTIKTFVPGSQPGEFTAGNIKSAPGQTSTLVRVVSTNYNQHAMVFFKHVSQNREFFVITLYGRTKELTSELKENFIRFSKSLGLPENHIVFPVPIDQCIDG
notes: as for B1
B8: lipocalin mutein of SEQ ID NO: 12 (designed binder)
chain: B7 chain with T44E, Q47Y, A73N, A94T
notes: as for B1
B9: lipocalin mutein of SEQ ID NO: 22 (designed binder)
chain: B7 chain with L36I, T44V, F132I
notes: as for B1

Columns and labels:
Assay in all cases: SPR (Biacore)
[1] = biological target: T3, recombinant human CTGF-Fc protein (Creative Biomart) (human)
T3 construct: Bought; also called human CTGF with a human IgG1 Fc Tag
T3 sequence (chain, as listed by the source limits assumed): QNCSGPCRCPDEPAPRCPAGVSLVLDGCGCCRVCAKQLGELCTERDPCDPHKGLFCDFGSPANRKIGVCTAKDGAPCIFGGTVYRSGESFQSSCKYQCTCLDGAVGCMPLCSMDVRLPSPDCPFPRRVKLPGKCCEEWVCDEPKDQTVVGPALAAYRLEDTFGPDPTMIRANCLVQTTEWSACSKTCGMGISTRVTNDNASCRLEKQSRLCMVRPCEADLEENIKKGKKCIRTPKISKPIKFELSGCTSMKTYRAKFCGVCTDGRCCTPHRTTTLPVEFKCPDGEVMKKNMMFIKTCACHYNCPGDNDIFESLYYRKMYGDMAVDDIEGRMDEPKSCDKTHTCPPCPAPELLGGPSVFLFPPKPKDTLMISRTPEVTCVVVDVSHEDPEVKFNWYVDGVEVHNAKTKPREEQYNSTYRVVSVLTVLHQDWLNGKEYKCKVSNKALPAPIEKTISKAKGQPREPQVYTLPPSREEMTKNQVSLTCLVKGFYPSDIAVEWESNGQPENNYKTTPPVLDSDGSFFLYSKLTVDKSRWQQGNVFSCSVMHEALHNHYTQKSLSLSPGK
Description: (§1) The binding of exemplary lipocalin muteins to human (Creative Biomart), cynomolgus, rat (R&D Systems) and mouse CTGF (Abbexa) was determined by SPR using a Biacore instrument (Cytiva, formerly GE Healthcare). Some targets were fused to a human IgG1 Fc tag, and captured via the anti-human IgG antibody kit, others were directly immobilized.
(§2) For some measurements, human CTGF with a human IgG1 Fc Tag or rat or murine CTGF without a tag were directly immobilized to a CM5 Chip. The carboxyl groups on the chip were activated using 1-ethyl-3-(3-dimethylaminopropyl)-carbodiimide (EDC) and N-hydroxysuccinimide (NHS). […] Residual non-reacted NHS-esters were blocked by passing a solution of 1 M ethanolamine across the surface. The reference channel was activated/deactivated. For the capture setting, targets with an IgG Fc Tag at 0.25-2.5 μg/mL in HBS-EP+ buffer were captured by the anti-human IgG-Fc antibody at the chip surface for 180 s at a flow rate of 10 μL/min.
(§3) The binding assay was carried out with a contact time of 180 s, a dissociation time of 900-3600 s and a flow rate of 30 μL/min. All measurements were performed at 25° C. […] For the directly immobilized targets, the same regeneration conditions were used. Prior to the protein measurements, three startup cycles were performed for conditioning purposes.

[2] = biological target: T1, recombinant rat CTGF protein (R&D …)
Description: as §1, §2, §3

mouse CTGF (Abbexa) = biological target: T2, mouse CTGF (Abbexa)
Description: as §1, §2, §3

Binder	Kd [1]	koff [1]	kon [1]	Kd [2]	koff [2]	kon [2]	Kd (mouse CTGF (Abbexa))	koff (mouse CTGF (Abbexa))	kon (mouse CTGF (Abbexa))	binding result [1]
B1	0.315 nM	6.65e-05 s⁻¹	211000 M⁻¹ s⁻¹	1.23 nM	0.000362 s⁻¹	294000 M⁻¹ s⁻¹	–	–	–	–
B2	0.802 nM	2.45e-05 s⁻¹	30500 M⁻¹ s⁻¹	–	–	–	4.16 nM	0.000172 s⁻¹	41400 M⁻¹ s⁻¹	–
B3	1.32 nM	3.06e-05 s⁻¹	23200 M⁻¹ s⁻¹	–	–	–	5.89 nM	0.000208 s⁻¹	35300 M⁻¹ s⁻¹	–
B4	0.517 nM	2.61e-05 s⁻¹	50400 M⁻¹ s⁻¹	–	–	–	1.35 nM	8.23e-05 s⁻¹	60700 M⁻¹ s⁻¹	–
B5	–	–	–	–	–	–	–	–	–	binds
B6	2.52 nM	0.000114 s⁻¹	45400 M⁻¹ s⁻¹	–	–	–	1.81 nM	0.000131 s⁻¹	72000 M⁻¹ s⁻¹	–
B7	0.76 nM	7.02e-05 s⁻¹	92300 M⁻¹ s⁻¹	–	–	–	0.393 nM	6.34e-05 s⁻¹	161000 M⁻¹ s⁻¹	–
B8	2.4 nM	0.000133 s⁻¹	55600 M⁻¹ s⁻¹	–	–	–	1.41 nM	0.000128 s⁻¹	91400 M⁻¹ s⁻¹	–
B9	0.057 nM	8.05e-06 s⁻¹	142000 M⁻¹ s⁻¹	0.221 nM	4.01e-05 s⁻¹	181000 M⁻¹ s⁻¹	–	–	–	–
